The test concerns the target fluorescent Aβ (1–42) (fluorophore label; fluorophore and position not stated). Put plainly: fluorescence polarisation. In general terms: Polarisation of emitted light reports the rotation of a fluorescent probe.

B1: ABAD Y168G mutant, purified protein (enzyme, human)
chain: MAAACRSVKGLVAVITGGASGLGLATAERLVGQGASAVLLDLPNSGGEAQAKKLGNNCVFAPADVTSEKDVQTALALAKGKFGRVDVAVNCAGIAVASKTYNLKKGQTHTLEDFQRVLDVNLMGTFNVIRLVAGEMGQNEPDQGGQRGVIINTASVAAFEGQVGQAAGSASKGGIVGMTLPIARDLAPIGIRVMTIAPGLFGTPLLTSLPEKVCNFLASQVPFPSRLGDPAEYAHLVQAIIENPFLNGEVIRLDGAIRMQP
Take B1: the “fold reduction in the calculated Kd against WT” value is roughly 11 fold.

The values are drawn from article PMC13354580 (Nature Communications, 2026).
